B1: TPR t1 (parent)
chain: GACCAAUCUGCCCUCAGAGCUCGAGAACAUCUUCGGAUGCAGAGGAGGCAGGCUUCGGUGGCGCGAUAGCGCCAACGUCCUCAACCUCCAAUGCAUCCCACCACAUGAUGAUGCCUGAAGAGCCUUGGUUUUUUG

Variants of: B1
Test: polymerase ribozyme fitness, log enrichment relative to wild type (log ratio); higher = more active; in vitro selection for triplet polymerase activity
In short: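 Fitness compares each genotype's enrichment to that of the wild type on a logarithmic scale, averaging replicates with inverse-variance weights. The logarithm is base 2. Enrichment came from Illumina sequencing of input and output libraries after one triplicate round of in vitro selection, which included frozen incubation at −7 °C, of PCR-built, transcribed mutant libraries of each subunit of a heterodimeric triplet polymerase ribozyme. Only genotypes with ≥10 input reads and ≥1 read per output were kept.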

Variant | polymerase ribozyme fitness (log ratio)
C8G G52A G63C C94G G113C U131G | -4.64
C8G G52U | 0.359
C8G G52U C64U C73U U96G | -1.4
C8G G57A U81A G120A | 0.685
C8G G58A U96A | 0.339
C8G G60A C104U | -0.296
C8G G60U C102U | -0.641
C8G G61A | 0.403
C8G G61C | -1.09
C8G G63A A83G C85A G122A | -1.28
C8G G63A C73U U78C C123G | 0.795
C8G G63U | -0.674
C8G G63U G77C U129C | -2.81
C8G G65C C114U C123A | -7.69
C8G G71A C89A C97U G120C | -1.24
C8G G93U | -0.15
C8G G110C | -2.74
C8G G117C | -0.943
C8G G117U | -1.44
C8G U9C C56G | 0.364
C8G U9C C56G G69A | -2.35

Variant | polymerase ribozyme fitness (log ratio)
C8G U9G | 0.256
C8G U9G C12A G69A C88G U132A | -4.01
C8G U9G C12G C49G A91U | -2.4
C8G U9G C73G C123A | 1.1
C8G U14A U55G C73G C97A | -4.31
C8G U14C G45A A84G | -0.446
C8G U14G C53U G71A | -0.0624
C8G U21A U38G C76U C88A U112G A121C | -4.14
C8G U30C | -2.51
C8G U30C C70U G113C U133A | -5.26
C8G U32G C101U C124A | -4.92
C8G U33C C64A U106A G120C | -6.76
C8G U38A A100U | -2.56
C8G U38C A50U C115A | 0.783
C8G U55A | 0.0363
C8G U78C C85U G113U U132A | -2.41
C8G U92A | -1.78
C8G U96C C104U | 0.578
C8U | 0.471
C8U A16U A37U G52C C56G C79A G110U U126A | -4.2
C8U A18U A50U G69C C82A C124G | -3

Variant | polymerase ribozyme fitness (log ratio)
C8U A24G G36A G44U | -2.87
C8U A24G G44U U106C | -1.81
C8U A24G G48C C115G | -3.87
C8U A24G U112G | -0.0167
C8U A26U U59G | -2.5
C8U A27G C82A | -1.59
C8U A29G A43G | -3.05
C8U A29U C70U | -2.36
C8U A29U U59C A121G | -1.03
C8U A46G | -0.00753
C8U A46U | -0.626
C8U A50U | -0.00813
C8U A50U C94A | -1.52
C8U A74G C123G | 1.71
C8U A100C G117A | -1.87
C8U A119G U126G G127U | -0.0945
C8U A121U | 2.15
C8U C11A | 0.824
C8U C12A A41U A46G G71A C89U | -2.07
C8U C12A G42A C70U U92A | -4.6
C8U C12G | 0.586

Variant | polymerase ribozyme fitness (log ratio)
C8U C12G U14G G60A U78G G113A | -3.01
C8U C12U C64A C123U | -4.54
C8U C12U C70G C94A | -3.02
C8U C13A A18C U54G C70U | -3.71
C8U C13A C85A U106C C123A | -0.442
C8U C13U A37C C70U A119G | -0.292
C8U C15U G36A A68G C97U G120A | -1.91
C8U C15U U32C G71U C99U | -4.38
C8U C20U A37U A43U | -2.77
C8U C22A A26G C28U C34A G63U C104A U112C G135A | -2.92
C8U C22G G45A G47C A100U | -4.96
C8U C22G U96A | -2.59
C8U C22U G39U G113A G120C C123A | -5.45
C8U C28G | -1.19
C8U C28G U109A | -4.64
C8U C40G G63U A100G | -5.92
C8U C40U | 0.0119
C8U C49U G71C G117U G120A C124A | -1.83
C8U C56U C89A A118U | -1.04
C8U C62A C98U | -1.15

From the RNAGym collection of RNA variant scans (doi:10.1073/pnas.2313332121)
